According to US20230272048A1 (UNIVERSITY OF MELBOURNE, published 2023):

T1: Scl-70 (human, UniProt P11387 1-765)
T1 sequence (looked up): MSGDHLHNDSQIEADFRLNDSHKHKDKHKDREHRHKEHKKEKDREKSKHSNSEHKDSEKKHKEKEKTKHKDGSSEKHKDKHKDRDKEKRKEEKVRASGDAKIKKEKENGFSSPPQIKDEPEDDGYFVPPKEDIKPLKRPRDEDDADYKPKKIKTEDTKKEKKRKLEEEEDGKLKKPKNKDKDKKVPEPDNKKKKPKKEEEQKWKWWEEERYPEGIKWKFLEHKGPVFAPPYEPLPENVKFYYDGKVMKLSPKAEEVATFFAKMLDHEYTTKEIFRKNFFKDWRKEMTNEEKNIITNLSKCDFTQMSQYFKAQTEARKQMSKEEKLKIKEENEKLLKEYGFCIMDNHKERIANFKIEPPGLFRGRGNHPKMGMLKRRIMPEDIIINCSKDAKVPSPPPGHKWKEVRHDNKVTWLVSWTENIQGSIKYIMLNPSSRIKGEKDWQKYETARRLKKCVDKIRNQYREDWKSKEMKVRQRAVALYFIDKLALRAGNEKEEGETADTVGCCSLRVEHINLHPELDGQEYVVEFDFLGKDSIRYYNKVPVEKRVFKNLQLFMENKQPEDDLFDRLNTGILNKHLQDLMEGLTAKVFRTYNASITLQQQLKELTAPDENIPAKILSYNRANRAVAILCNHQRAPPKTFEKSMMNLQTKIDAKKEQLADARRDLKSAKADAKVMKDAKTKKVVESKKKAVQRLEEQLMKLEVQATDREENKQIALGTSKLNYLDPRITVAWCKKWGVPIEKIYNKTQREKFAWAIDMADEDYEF


Key:
R419A = target: T2, R419A (HIV-1); experiment: capture ELISA on Env of lysed AD8 pseudovirus, % of WT
T2 construct: full-length Env of lysed pseudovirus; HXB-2 numbering

L179A = target: T3, L179A (HIV-1); experiment: as above
T3 construct: full-length Env of lysed pseudovirus; HXB-2 numbering

M475A = target: T4, M475A (HIV-1); experiment: as above
T4 construct: full-length Env of lysed pseudovirus; HXB-2 numbering

D185A = target: T5, D185A (HIV-1); experiment: as above
T5 construct: full-length Env of lysed pseudovirus; HXB-2 numbering

M373A = target: T6, M373A (HIV-1); experiment: as above
T6 construct: full-length Env of lysed pseudovirus; HXB-2 numbering

S365A = target: T7, S365A (HIV-1); experiment: as above
T7 construct: full-length Env of lysed pseudovirus; HXB-2 numbering

N283A = target: T8, N283A (HIV-1); experiment: as above
T8 construct: full-length Env of lysed pseudovirus; HXB-2 numbering

N262A = target: T9, N262A (HIV-1); experiment: as above
T9 construct: full-length Env of lysed pseudovirus; HXB-2 numbering

G472A = target: T10, G472A (HIV-1); experiment: as above
T10 construct: full-length Env of lysed pseudovirus; HXB-2 numbering

K282A = target: T11, K282A (HIV-1); experiment: as above
T11 construct: full-length Env of lysed pseudovirus; HXB-2 numbering

P369A = target: T12, P369A (HIV-1); experiment: as above
T12 construct: full-length Env of lysed pseudovirus; HXB-2 numbering

E87A = target: T13, E87A (HIV-1); experiment: as above
T13 construct: full-length Env of lysed pseudovirus; HXB-2 numbering

N197A = target: T14, N197A (HIV-1); experiment: as above
T14 construct: full-length Env of lysed pseudovirus; HXB-2 numbering

A329K = target: T15, A329K (HIV-1); experiment: as above
T15 construct: full-length Env of lysed pseudovirus; HXB-2 numbering

Q363A = target: T16, Q363A (HIV-1); experiment: as above
T16 construct: full-length Env of lysed pseudovirus; HXB-2 numbering

P313A = target: T17, P313A (HIV-1); experiment: as above
T17 construct: full-length Env of lysed pseudovirus; HXB-2 numbering

R476A = target: T18, R476A (HIV-1); experiment: as above
T18 construct: full-length Env of lysed pseudovirus; HXB-2 numbering

N276A = target: T19, N276A (HIV-1); experiment: as above
T19 construct: full-length Env of lysed pseudovirus; HXB-2 numbering

K121A = target: T20, K121A (HIV-1); experiment: as above
T20 construct: full-length Env of lysed pseudovirus; HXB-2 numbering

Scl-70 = target: T1, Scl-70; experiment: single autoantigen ELISA (AESKULISA ANA-8Pro), FIG. 9A
Text: Polyreactivity assay: Single autoantigen reactivity. […] ANA-8Pro (Aesku) for U1-ribonucleoprotein (RNP), SnRNP/Sm, Sm, SS-A, SS-B, Jo-1, Scl-70, and CenpB. The 96 wells were coated with these cellular and nuclear antigens for the qualitative detection of mAbs reactivity. The cut-off calibrator, negative control and positive control were provided by the manufacturer.

Binder	Env binding (%) at antibody EC50 (R419A) [%]	Env binding (%) at antibody EC50 (L179A) [%]	Env binding (%) at antibody EC50 (M475A) [%]	Env binding (%) at antibody EC50 (D185A) [%]	Env binding (%) at antibody EC50 (M373A) [%]	Env binding (%) at antibody EC50 (S365A) [%]	Env binding (%) at antibody EC50 (N283A) [%]	Env binding (%) at antibody EC50 (N262A) [%]	Env binding (%) at antibody EC50 (G472A) [%]	Env binding (%) at antibody EC50 (K282A) [%]	Env binding (%) at antibody EC50 (P369A) [%]	Env binding (%) at antibody EC50 (E87A) [%]	Env binding (%) at antibody EC50 (N197A) [%]	Env binding (%) at antibody EC50 (A329K) [%]	Env binding (%) at antibody EC50 (Q363A) [%]	Env binding (%) at antibody EC50 (P313A) [%]	Env binding (%) at antibody EC50 (R476A) [%]	Env binding (%) at antibody EC50 (N276A) [%]	Env binding (%) at antibody EC50 (K121A) [%]	binding result (Scl-70)
MEL-1872 (antibody, also called H 1872; BrNAb MEL-1872) VH: KVQLRESGPSLVKPSQTLSLTCTASGFSLSDKAVGWVRQAPGQPLEWLGTIDTTGNAVYNPGLKSRLSITKDNSKSQVSLSLSSVTTEDSATYHCSTVHQKTRRSCPSDYSFICDCEGTGSHCCRASNCPYYCNYGRDRMCTGRSNIHEWHVDAWGQGLLVTVSS VL: QAVLTQPSSVSGSLGQRVSTTCSGSSSNVGNGYVSWYQLIPGSAPRTLIYGDTSRASGVPDRFSGSRSGNTVTLTISSLQAEDEADYFCASAEDGSSNAVFGRGTTLTV	108	110	82	99	102	70	76	27	29	63	88	87	92	38	93	100	57	100	94	
MEL-2129 (antibody, also called BrNAb MEL-2129) VH: KVQLRESGPSLVKPSQTLSLTCTASGFSLSDKAVGWVRQAPGKALEWLGSIDTGGNAGYNPGLKSRLSITKGNSKSQVSLSVSSVTTEDSATYYCSTVHQKTRRSCPVDYYYSCDCEGSGSHCCSASNCPYYCKYGRDRVCTDKHTYSYEWYVDAWGQGLLVTVSS VL: QAVLTQPSSVSGSLGQRVSTTCSGSSSNVGNGYVSWYQLIPGSAPRTLIYGDTSRASGVPDRFSGSRSGNTVTLTISSLQAEDEADYFCASAEDGSSNAVFGRGTTLTV	93	101	63	93	92	126	64	18	15	85	81	81	82	46	79	84	64	89	80	no binding (tested: 100 µg/ml)
MEL-1842 (antibody, also called H 1842; BrNAb MEL-1842) VH: KVQLQESGPSLVKPSQTLSLTCTASGFSLSDKAVGWVRQAPGQALEWLGSIDTGGNADYNPGLKSRLSITKDNAKSQVSLSVSSVTTEGSATYYCSTVHQKTLRSCPSDYPYICDCEDTGSHCCRATNCPYYCNHGRDRMCTGRTYTYEWHVEAWGQGLLVTVSS VL: QAVLTQPSSVSGSLGQRVSTTCSGSSSNVGNGYVSWYQLIPGSAPRTLIYGDTSRASGVPDRFSGSRSGNTVTLTISSLQAEDEADYFCASAEDGSSNAVFGRGTTLTV	110	110	99	100	102	37	82	44	39	84	94	108	93	101	97	100	81	100	107	no binding (tested: 100 µg/ml)
